# Assay results from US20190328837A1 (Stanford University, published 2019).
# T1: wild-type CNTFR-HIS (human, UniProt P26992 23-342)
# T1 construct: also called wtCNTFR-HIS; HIS tagged CNTFR; not shown: HIS tag
# T1 sequence: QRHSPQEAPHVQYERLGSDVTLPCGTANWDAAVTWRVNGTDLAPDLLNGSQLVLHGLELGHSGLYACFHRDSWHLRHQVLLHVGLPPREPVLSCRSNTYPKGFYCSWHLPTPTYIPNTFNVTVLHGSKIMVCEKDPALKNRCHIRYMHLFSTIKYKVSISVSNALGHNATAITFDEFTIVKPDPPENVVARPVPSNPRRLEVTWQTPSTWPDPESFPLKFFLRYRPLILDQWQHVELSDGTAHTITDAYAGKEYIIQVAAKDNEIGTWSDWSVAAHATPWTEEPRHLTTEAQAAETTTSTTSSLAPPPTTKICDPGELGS
# T2: wild-type CNTFR-Fc (human, UniProt P26992 23-342)
# T2 construct: also called wtCNTFR-Fc; not shown: Fc domain; captured with anti-mouse Fc antibody
# T2 sequence: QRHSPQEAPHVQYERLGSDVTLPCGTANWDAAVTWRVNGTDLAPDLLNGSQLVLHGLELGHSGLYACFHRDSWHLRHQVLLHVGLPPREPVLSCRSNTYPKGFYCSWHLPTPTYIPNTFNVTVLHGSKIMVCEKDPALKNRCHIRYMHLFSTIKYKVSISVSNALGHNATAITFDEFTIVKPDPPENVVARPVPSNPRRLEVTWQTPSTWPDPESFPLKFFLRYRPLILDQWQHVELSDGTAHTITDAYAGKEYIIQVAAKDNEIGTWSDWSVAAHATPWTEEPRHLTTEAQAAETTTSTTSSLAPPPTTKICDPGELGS
# How the values were obtained:
# wild-type CNTFR-HIS [1] = molecular target: T1, wild-type CNTFR-HIS; test: flow cytometry, yeast-displayed CLCF1 construct, soluble CNTFR-HIS titrated, anti-HIS Hilyte Fluor 488 detection
# Method: (§1) Using equilibrium binding conditions and screened by flow cytometric sorting (FACS), high throughput screening of the CLCF1 library using wtCNTFR-HIS was performed to enrich variants showing increased CLCF1 binding. Expression signal was used to normalize CNTFR binding to distinguish high expressers from high affinity binders. Screening stringency was increased throughout sorting by decreasing the concentration of wtCNTFR-HIS incubated with the library. […] Thus a variant containing the three mutations (named FRR-CLCF1) was chosen for further characterization (FIG. 7).
# (§2) Yeast displaying CLCF1 constructs were incubated with varying concentrations of CNTFR for 12 h at room temperature to reach equilibrium binding. This was followed by washing with BPBS and resuspension in PBSA with 1:500 ratio of chicken anti-c-Myc (Invitrogen) for 30 min at 4 C. Yeast were then washed and pelleted, and secondary labeling was performed on ice for 30 min using PBSA with 1:100 dilution of goat anti-chicken PE (Santa Cruz) and mouse anti-HIS Hilyte Fluor 488 (Anaspec). Then samples were washed and analyzed by flow cytometry using Accuri (BD Biosciences). Samples were analyzed on BD Bioscience software, and data were analyzed using FlowJo software. Kd values were determined by fitting to a four-parameter sigmoidal curve. Error bars represent the standard deviation of triplicate experiments.
# wild-type CNTFR-HIS [2] = molecular target: T1, wild-type CNTFR-HIS; test: flow cytometry, yeast-displayed CLCF1 construct, soluble CNTFR-HIS titrated, apparent Kd from a four-parameter fit
# Method: as §1, §2
# wild-type CNTFR-HIS [3] = molecular target: T1, wild-type CNTFR-HIS; test: yeast surface display, equilibrium titration with CNTFR-HIS, flow cytometry (apparent Kd)
# Method: as §1, §2
# wild-type CNTFR-Fc [4] = molecular target: T2, wild-type CNTFR-Fc; test: sandwich ELISA, soluble CLCF1 titrated against 2 nM CNTFR-Fc, anti-mouse-Fc capture, anti-CLCF1 detection
# Method: (§3) The CLCF1 variants isolated from screening were cloned into the pET28b bacterial expression plasmid and expressed and purified. […] A sandwich ELISA was performed using an anti-mouse Fc antibody as a capturing agent for wtCNTFR-Fc, followed by an anti-CLCF1 antibody as a detection agent for the bound complex. […] ELISA was also used to measure binding interactions with the gp130 and LIFR beta receptors.
# (§4) To measure the solution-phase binding interaction between the CLCF1 constructs and CNTFR, different concentrations of soluble, recombinant CLCF1 variants and wtCLCF1 were incubated with 2 nM CNTFR-Fc in BPBS for 12 h at room temperature. The mixture was then added to 96-well plates coated with anti-mouse-Fc antibody for 1 h followed by washing with BPBS twice. Subsequently, the wells were incubated with 1:1000 diluted anti-CLCF1 rabbit antibody for 2 h at room temperature then washed four times with BPBS. The wells were incubated with a 1:1000 diluted HRP conjugated anti-rabbit antibody for 2 h at room temperature, and washed four times with BPBS. 1-Step Ultra TMB ELISA was used for the readout, which was measured using a plate reader (Tecan).
# wild-type CNTFR-Fc [5] = molecular target: T2, wild-type CNTFR-Fc; test: cell-free ELISA, HIS-tagged soluble CLCF1 titrated against 2 nM CNTFR-Fc, anti-HIS capture, HRP anti-mouse detection
# Method: 96-well plates were coated with 10 μg/mL of anti-HIS antibody overnight and blocked with 5% milk for 1 h. The plates were then washed twice with BPBS. Different concentrations of soluble constructs of HIS-tagged CLCF1 variants were incubated with 2 nM CNTFR-Fc in BPBS for 12 h at room temperature. The mixture was then added to 96-well plates coated with anti-HIS antibody for 1 h followed by washing with BPBS twice. Subsequently, the wells were incubated with 1:1000 diluted HRP conjugated anti-mouse antibody for 1 h at room temperature then washed four times with PBS. 1-Step Ultra TMB ELISA (Thermo Fisher Scientific) was used for the readout detected using a plate reader (Tecan).
# wild-type CNTFR-Fc [6] = molecular target: T2, wild-type CNTFR-Fc; test: sandwich ELISA, soluble CLCF1 titrated against 2 nM CNTFR-Fc, apparent Kd
# Method: as §3, §4
# wild-type CNTFR-HIS [7] = molecular target: T1, wild-type CNTFR-HIS; test: flow cytometry, yeast-displayed CLCF1 construct, soluble CNTFR titrated, apparent Kd
# wild-type CNTFR-HIS [8] = molecular target: T1, wild-type CNTFR-HIS; test: flow cytometry, yeast-displayed CLCF1 construct, soluble CNTFR titrated
binder,measurement,setting,value
v2 (ligand) CLCF1 variant displayed on yeast as Aga2p fusion with c-myc tag: LNRTGDPGPGPSIQKTYDLTRYLEHQLRSLAGTYLNYLGPPFNEPDFNPPRLGAETLPRATVDLEVWRSLNDKLRLTQNYEAYSHFLCYLRGLNRRAATAELRRSLAHFCTSLQGLLGSIAGVMAALGYPLPQPLPGTEPTWTPGPAHSDFLQKMDDFWLLKELQTWLWRSAKDFNRLKKKMQPPAAAVTLHLGAHGF,EC50 (read off the curve),wild-type CNTFR-HIS [1],~4 nM
same,Kd,wild-type CNTFR-HIS [2],3.1 nM
yeast-displayed CLCF1 variant H148R (ligand) LNRTGDPGPGPSIQKTYDLTRYLEHQLRSLAGTYLNYLGPPFNEPDFNPPRLGAETLPRATVDLEVWRSLNDKLRLTQNYEAYSHLLCYLRGLNRRAATAELRRSLAHFCTSLQGLLGSIAGVMAALGYPLPQPLPGTEPTWTPGPARSDFLQKMDDFWLLKELQTWLWRSAKDFNRLKKKMQPPAAAVTLHLGAHGF,Kd,wild-type CNTFR-HIS [3],4.2 nM
"recombinant soluble wild-type human CLCF1 (ligand, Expressed in E. coli from pET28b and purified from inclusion bodies by RP-HPLC; also called wtCLCF1; wild-type CLCF1) LNRTGDPGPGPSIQKTYDLTRYLEHQLRSLAGTYLNYLGPPFNEPDFNPPRLGAETLPRATVDLEVWRSLNDKLRLTQNYEAYSHLLCYLRGLNRQAATAELRRSLAHFCTSLQGLLGSIAGVMAALGYPLPQPLPGTEPTWTPGPAHSDFLQKMDDFWLLKELQTWLWRSAKDFNRLKKKMQPPAAAVTLHLGAHGF",EC50 (read off the curve),wild-type CNTFR-Fc [4],~80 nM
same,EC50 (read off the curve),wild-type CNTFR-Fc [5],~80 nM
yeast-displayed CLCF1 variant L86F (ligand) LNRTGDPGPGPSIQKTYDLTRYLEHQLRSLAGTYLNYLGPPFNEPDFNPPRLGAETLPRATVDLEVWRSLNDKLRLTQNYEAYSHFLCYLRGLNRRAATAELRRSLAHFCTSLQGLLGSIAGVMAALGYPLPQPLPGTEPTWTPGPAHSDFLQKMDDFWLLKELQTWLWRSAKDFNRLKKKMQPPAAAVTLHLGAHGF,Kd,wild-type CNTFR-HIS [3],3.1 nM
v1 (ligand) soluble CLCF1 variant: LNRTGDPGPGPSIQKTYDLTRYLEHQLRSLAGTYLNYLGPPFNEPDFNPPRLGAETLPRATVDLEVWRSLNDKLRLTQNYEAYSHLLCYLRGLNRRAATAELRRSLAHFCTSLQGLLGSIAGVMAALGYPLPQPLPGTEPTWTPGPAHSDFLQKMDDFWLLKELQTWLWRSAKDFNRLKKKMQPPAAAVTLHLGAHGF,Kd,wild-type CNTFR-Fc [6],6.6 nM
same,EC50 (read off the curve),wild-type CNTFR-Fc [4],~6 nM
v5 (ligand) CLCF1 variant displayed on yeast as Aga2p fusion with c-myc tag: LNRTGDPGPGPSIQKTYDLTRCLEHQLRSLAGTYLNYLGPPFNEPDFNPPRLGAETLPRATVDLEVWRSLNDKLRLTQNYEAYSHFLCYLRGLNRRAATAELRRSLAHFCTSLQGLLGSIAGVMAALGYPLPQPLPGTEPTWTPGPARSDFLQKMDDFWLLKELQTWLWRSAKDFNRLKKKMQPPAAAVTLHLGAHGF,Kd,wild-type CNTFR-HIS [7],0.18 nM
v2 (ligand) CLCF1 variant displayed on yeast as Aga2p fusion with c-myc tag: LNRTGDPGPGPSIQKTYDLTRYLEHQLRSLAGTYLNYLGPPFNEPDFNPPRLGAETLPRATVDLEVWRSLNDKLRLTQNYEAYSHFLCYLRGLNRRAATAELRRSLAHFCTSLQGLLGSIAGVMAALGYPLPQPLPGTEPTWTPGPARSDFLQKMDDFWLLKELQTWLLRSAKDFNRLKKKMQPPAAAVTLHLGAHGF,Kd,wild-type CNTFR-HIS [7],0.22 nM
"yeast-displayed CLCF1 variant with Y22C, L86F, Q96R, H148R, W169L, K180R (ligand, not shown: large carriers; small tags and cut ends, also called the resulting variant (five consensus mutations combined with Y22C)) LNRTGDPGPGPSIQKTYDLTRCLEHQLRSLAGTYLNYLGPPFNEPDFNPPRLGAETLPRATVDLEVWRSLNDKLRLTQNYEAYSHFLCYLRGLNRRAATAELRRSLAHFCTSLQGLLGSIAGVMAALGYPLPQPLPGTEPTWTPGPARSDFLQKMDDFWLLKELQTWLLRSAKDFNRLKRKMQPPAAAVTLHLGAHGF",EC50 (read off the curve),wild-type CNTFR-HIS [8],~0.1 nM
same,Kd,wild-type CNTFR-HIS [7],0.06 nM
"yeast-displayed FRR-CLCF1 (L86F, Q96R, H148R) (ligand, not shown: large carriers; small tags and cut ends, also called the variant with all three mutations) LNRTGDPGPGPSIQKTYDLTRYLEHQLRSLAGTYLNYLGPPFNEPDFNPPRLGAETLPRATVDLEVWRSLNDKLRLTQNYEAYSHFLCYLRGLNRRAATAELRRSLAHFCTSLQGLLGSIAGVMAALGYPLPQPLPGTEPTWTPGPARSDFLQKMDDFWLLKELQTWLWRSAKDFNRLKKKMQPPAAAVTLHLGAHGF",EC50 (read off the curve),wild-type CNTFR-HIS [8],~1 nM
same,Kd,wild-type CNTFR-HIS [7],0.83 nM
same,EC50 (read off the curve),wild-type CNTFR-HIS [1],~1 nM
"yeast-displayed CLCF1 variant Q96R (ligand, not shown: large carriers; small tags and cut ends) LNRTGDPGPGPSIQKTYDLTRYLEHQLRSLAGTYLNYLGPPFNEPDFNPPRLGAETLPRATVDLEVWRSLNDKLRLTQNYEAYSHLLCYLRGLNRRAATAELRRSLAHFCTSLQGLLGSIAGVMAALGYPLPQPLPGTEPTWTPGPAHSDFLQKMDDFWLLKELQTWLWRSAKDFNRLKKKMQPPAAAVTLHLGAHGF",Kd,wild-type CNTFR-HIS [3],7.9 nM
same,EC50 (read off the curve),wild-type CNTFR-HIS [1],~6 nM
v3 (ligand) soluble CLCF1 variant: LNRTGDPGPGPSIQKTYDLTRYLEHQLRSLAGTYLNYLGPPFNEPDFNPPRLGAETLPRATVDLEVWRSLNDKLRLTQNYEAYSHLLCYLRGLNRRAATAELRRSLAHFCTSLQGLLGSIAGVMAALGYPLPQPLPGTEPTWTPGPARSDFLQKMDDFWLLKELQTWLWRSAKDFNRLKKKMQPPAAAVTLHLGAHGF,Kd,wild-type CNTFR-Fc [6],2.5 nM
same,EC50 (read off the curve),wild-type CNTFR-Fc [4],~2 nM
"v4 (ligand, The five consensus mutations without Y22C) CLCF1 variant displayed on yeast as Aga2p fusion with c-myc tag: LNRTGDPGPGPSIQKTYDLTRYLEHQLRSLAGTYLNYLGPPFNEPDFNPPRLGAETLPRATVDLEVWRSLNDKLRLTQNYEAYSHFLCYLRGLNRRAATAELRRSLAHFCTSLQGLLGSIAGVMAALGYPLPQPLPGTEPTWTPGPARSDFLQKMDDFWLLKELQTWLLRSAKDFNRLKRKMQPPAAAVTLHLGAHGF",EC50 (read off the curve),wild-type CNTFR-HIS [8],~0.4 nM
same,Kd,wild-type CNTFR-HIS [7],0.08 nM
v2 (ligand) soluble CLCF1 variant: LNRTGDPGPGPSIQKTYDLTRYLEHQLRSLAGTYLNYLGPPFNEPDFNPPRLGAETLPRATVDLEVWRSLNDKLRLTQNYEAYSHFLCYLRGLNRRAATAELRRSLAHFCTSLQGLLGSIAGVMAALGYPLPQPLPGTEPTWTPGPAHSDFLQKMDDFWLLKELQTWLWRSAKDFNRLKKKMQPPAAAVTLHLGAHGF,Kd,wild-type CNTFR-Fc [6],2.3 nM
same,EC50 (read off the curve),wild-type CNTFR-Fc [4],~2 nM
v3 (ligand) CLCF1 variant displayed on yeast as Aga2p fusion with c-myc tag: LNRTGDPGPGPSIQKTYDLTRYLEHQLRSLAGTYLNYLGPPFNEPDFNPPRLGAETLPRATVDLEVWRSLNDKLRLTQNYEAYSHFLCYLRGLNRRAATAELRRSLAHFCTSLQGLLGSIAGVMAALGYPLPQPLPGTEPTWTPGPARSDFLQKMDDFWLLKELQTWLWRSAKDFNRLKRKMQPPAAAVTLHLGAHGF,Kd,wild-type CNTFR-HIS [7],0.28 nM
